Results on one molecule are retold here after article PMC6374468 (Nature Communications, 2019).

The assay deals with monomeric gp120 from isolate BaL (HIV-1 clade B, isolate BaL (clone not …, UniProt Q6TAP7, strain)). Kind of assay: ELISA. On the technique in general: In an ELISA, binding on a coated surface is turned into a signal by an enzyme label.

B1: VRC01 FR3-03 (antibody, V domains shown)
VH: QVQLVQSGGQMKKPGESMRISCRASGYEFIDCTLNWIRLAPGKRPEWMGWLKPRGGAVNYARPLQGRVTMTRQLSQDPDDPDWGTAFLELRSLTVDDTAVYFCTRGKNCDYNWDFEHWGRGTPVIVGG
VL: EIVLTQSPGTLSLSPGETAIISCRTSQYGSLAWYQQRPGQAPRLVIYSGSTRAAGIPDRFSGSRWGPDYNLTISNLESGDFGVYYCQQYEFFGQGTKVQVG
With B1, the binding result was “binds”.
